Test results from the DeepSol protein solubility set.

Experiment: soluble on expression in E. coli; label from the status in PepcDB or PDB records

Row | Sequence | soluble on expression in E. coli
1 | MSLGSIITLYSPVGGIGKSTIAIEMAKKLSDSNKKVLYLNLEDLQSTLVFFECSTSKNMSDFLYFIKERDENFKEVLKDIVLKDEESGINYFAPVDSVLDIEDLKVDDVKFMLQKLIEVNMYNYIIIDLSSTFNINYKTIFEMSSKIIVPIGQDKLSSVKLQNFLKQLDNLENFSFIQNKYKDNLETIIPHVLLREKKPIIQKIYYDEALESVSSLIYLKNRASTFLRCIDELIMKLLEGHHHHHH | soluble
2 | MTDMTYTIALMGNPNTGKSTLFNVLTGLRQHTGNWPGKTVTHAEGECRHRGTLYRIVDLPGTYSLYSNSADEEVARDFLLFQRPDVTIVVVDATALERNLNLALQVLEMTDRVIIAINLMDEAKKKGIHINTKKLAAKLGVPVVPISARNREGIDALLDTVDAMAHGRINTNPLSIRYSPEIERGIAKLLPLVKDVMGDTYPARWIALRLLDGDTSLLQALKQPPQPLIKEGNAYACCGSVKSV | not soluble
3 | AIAYASETASTQGLPALELDPEELLAQVQLLRAAVEGSRRESRELVGALERERRLNLEMRQRFERQFAAVSDQLLQLNHLQKESEALLQSLQEQLNEAELQKNAAQRELACVQRQLSLARAEADAGKRVLTTIAEKEALLRKTSQANADLQQIVMHLQAELRNSELQPSTSNASEERLHEAEIPSLADRDAYQTLQQTIEKLSAERDMWYHECARAKEESLRLQQDAERLRGLLDEQQRVHTTTQTLLQDRHLLMRRIIAALAEKYLMEKLPNQHYTQEIDSSPFQARGGTSVQEAHKHERLRRARSF | soluble
4 | MKRDAKDHARNRLMNFYIKKAPTYSAIVKIEHFENDAPSEAKDFEPLVVYSLNKKKRWEINQEFLDSSSEGDDSKSVIIDREIPDLYFAWWSLGNVHSHDCVNHSKPVNSSQIDNAKKEEKVVGYHIVRVPKNHKKVFDNKCIRYIGLRYPEFLGYSSKDWPALQYEMKELEEEHEELEKENASLEAESTETTKPTGFYNLDEHFVAKKQRKPKGWLTVE | not soluble
5 | AYGKKSQTEVISFEEVVHPAEKIREALQVGKNEAIYELIRRRMLDGEPMTVEKIYLPQAYVQGHTKQDFEGSLFCLIEKNVEIAYSHQEIEAILVEAEISELLNVPVGQPLLQVHSITYALDATPILYDVSLYRADRYTFKNTLTRYSPSENNQVELGGSWNE | soluble
6 | MNLDDIESLSEQIARHIGEQIITGELVEGERIQELRIAKELDVSRGSVREALLLLERTHLIEIFPRRGAIVSEMSSQQVKALFDSSVLVLGHIVQKISESWRVHEAEQLQHLIEQLNEHVKAGDTEKFYDGIFEYLAQQHDMVMNAYLMKFYKELLPSLRRSYFLTLNTSRRELQEALALFKLVTDAILIRKSHQATLFMEDFCRHLRNLVLESLTRMKQIELAWARRSRRSSNR | not soluble
7 | MGSDKIHHHHHHMLKTKTALTLSDKNYYSTEADWHYMSVSQYKNFNECEAATIARLKKIWLPCSDPKALLVGNYVHSYFESSKIHDLFKKENKDKMFSSRKPYGLLKDFQIAEQMIQRLKEEPAFMNLYKGEKEVIVTGQIENVNWKGKIDCLNLEDGYFVDIKTTKDIHERKWNDSYAERCTFIENYGYVLQMAVYKELLSQKYNREFVPIIAAVSKQTPSEVKLITLDEDKMHFEMIQLKENIEHIIKVKNGEEKPTLCGRCEYCRGQQRITHFTNMNDL | not soluble
8 | MEGLLIDYVQPGSIAEELEIEAGDRLVAINGQDLRDIIDFSFYAHDEELALEIVKPSGDHWEAEIERDGDEPLGLVFAPPVPAQCGNKCVFCFVHQLPLEHHHHHH | soluble
9 | MYYGALSIRAEAWLIVSPEVTKIMAKEQTDRTTLDLFAHERRPGRPKTNPLSRDEQLRINKRNQLKRDKVRGLKRVELKLNAEAVEALNELAESRNMSRSELIEEMLMQQLAALRSQGIV | not soluble
10 | FGYIVELNWKLSKILNCQPEYVYPKLDELLGCLLTKKPLHEYGMKDEEVRGFAESVLKTQQRLLANNYVELTVDEIEGIYRRLY | not soluble
11 | SDQGLIFTNHHCGYGAIQSQSTVDHDYLRDGFVSRTMGEELPIPGLSVKYLRKIVKVTDKVEGQLKGITDEMERLRKAQEVCQELAKKENADENQLCIVEPFYSNNEYFLIVYDVFKDVRMVFAPPSSVGKFGGDTDNWMWPRHTGDFSVFRVYAGADNRPAEYSKDNKPYKPVYFAAVSMQGYKADDYAMTIGFPGSTDRYLTSWGVEDRIENENNPRIEVRGIKQGIWKEAMSADQATRIKYASKYAQSANYWKNSIGMNRGLARLDVIGRKRAEERAFADWIRKNGKSAVYGDVLSSLEKAYKEGAKANREMTYLSETLFGGTEVVRFAQFANALATNPDAHAGILKSLDDKYKDYLPSLDRKVLPAMLDIVRRRIPADKLPDIFKNVIDKKFKGDTKKYADFVFDKSVVPYSDKFHAMLKSMDKEKFAKAIEKDPAVELSKSVIAAARAIQADAMANAYAIEKGKRLFFAGLREMYPGRALPSDANFTMRMSYGSIKGYEPQDGAWYNYHTTGKGVLEKQDPKSDEFAVQENILDLFRTKNYGRYAENGQLHIAFLSNNDITGGNSGSPVFDKNGRLIGLAFDGNWEAMSGDIEFEPDLQRTISVDIRYVLFMIDKWGQCPRLIQELKLI | not soluble
12 | MSLSHYTVGELANHLGVTVRTLQYYDRKGLLTAERATESNRRYYNDDHIQQLQLIFLLKQFGCTLDEIKTLLYEDSDMQTLKAMLQLHKKKLETSIHDQTKALKHLNNVDQYISSHSSAPINHLSDIDKAVKQSTTLKSEGHHHHHH | not soluble
13 | MGSDKIHHHHHHMNTLQRRKTHQVRIDHITVGSEAPVVIQSMTNTDTADAKATALQIKELSDAGSEMVRITVNSPEAASKVAEIRRRLDDMGYATPLIGDFHFNGERLLAEFPECGKALSKYRINPGNVGKGVKGDEKFAFMIRTAAENDKAVRIGVNWGSLDQSLAKRMMDANLASSAPKPPEEVTKEALIVSALESAEKAVLLGLPEDKIILSCKVSAVQDLIQVYRELGSRCAYPLHLGLTEAGMGSKGIVASTAALSVLLQEGIGDTIRISLTPEPGSPRTQEVVVGQEILQTMGLRSFTPMVTACPGCGRTTSTVFQELAQDVQNYLRQKMSIWRTLYPGVESLNVAVMGCVVNGPGESKLADIGISLPGTGETPVAPVYVDGERKVTLKGDNIATEFLAIVEEYVKTNYGENGSKRNQNKIIPIQSL | not soluble
14 | MSLNTPLAERLRPKKLEDYLSQHHLVGENGSLQQALKAGIIPSLILWGPPGIGKTTLATIIAEESKRPFYTLSAINSGVKDIREVIDKAKQSGGLFTQKNPILFIDEIHRFSKSQQDSLLGAVERGWVTLVGATTENPSFEVIPALLSRCQVYILKPFEKKDLILLLNRAINTDEILKKKNITLLETEALLRLSGGDARKLLNIFELIVTTENDKDVVVTNDMVLSKVQQNIVRYDKTGEQHYDIISAFIKSIRGSDPNAAVYWLARMIEGGEDVKFIARRLIIAAAEDIGNANPTALVIANNCFQAVTTIGYPEARIILSQCVTYLASSPKSNAAYMAIGKAQQLVKQTGDLSVPLPLRNAPTKLMKEIGYGNDYKYSHDYPGNFVQQEFLPKEISGTTLYEPTDNTREKAIKENLKAKWGSKYNYEGHHHHHH | soluble
15 | MGSDKIHHHHHHQDGNQPALVDALVVNARTPGPAWWSVSKGDKKVWVLGIGAPVPADAKWDGRAFERRVKASRQLILVPPSKTRFEKNTIKADRKWLDELTEAERARLAEVATQTGRKLEFYTLFRPNFAGLLINSELQARAKPKMGKLLDLSVRARRLGARLVPAGGLDAQAMKASFQVGGKDSLICLRWAMRPRDAAALREQRAQAWMRGDVRTLLVGPAAYDPCVQAMAAMQASLENNEGALANTIAATLDRGDGAVALVGLVPLLREGGVLDQLRKRGYLIETPAQMDDED | not soluble
16 | MAGMNTENENRVEALEVRLAFQDELLDALNATVARQQKEIDLLQQQIRLLYQQFRNAQPDDAPGGSLRDDIPPHY | not soluble
17 | MFKNLIWLKEVDSTQERLKEWNVSYGTALVADRQTKGRGRLGRKWLSQEGGLYFSFLLNPKEFENLLQLPLVLGLSVSEALEEITEIPFSLKWPNDVYFQEKKVSGVLCELSKDKLIVGIGINVNQREIPEEIKDRATTLYEITGKDWDRKEVLLKVLKRISENLKKFKEKSFKEFKGKIESKMLYLGEEVKLLGEGKITGKLVGLSEKGGALILTEEGIKEILSGEFSLRRS | soluble
18 | PCCELITNISIPDDKAQNTLSEIEDAISNILGKPVAYIMSNYDYQKNLRFSGSNEGYCFVRLTSIGGINRSNNSLLADKITKILSNHLSVKPRRVYIEFRDCSAQNFAFSGSLFGGSRSHHHHHH | soluble
19 | MGSDKIHHHHHHMYANASSENGAVNVSDDGPPLRIIHCFRSPVGGVFRHVRDLIEEHVRQGHKVGIVCDSSTGGAHEERLFAQITPMLELGLTRLPIRRSISPGDLLALWKSYKHIKSLRPDILHGHSAKGGALARLIGSLLRANRYRVARLYSPHGGSLHYARNSLKGQLFLRLERFQEHFTDALCFVCNFEQETYETKVGKPRTRTAMIYNGVQESEFETVPPRDGAARFLYIGMLRDLKGPDVFIRAFAKMERSIGQPMSGVIVGDGPDRDKYAAMIATAGLSRRISMHAAMPARQAFELATTVVVPSRAEAMPYIVLEALAAGKTVIASHVGGIPEVLGEDSEALVPAGDADALARTMVKDAADADWAQRVMPHPDSFKAKFSTPVMADEMMKLYRDLLTT | not soluble
20 | FRRTGIRRIIIGQDQILFESSDNTVQIFPLNTLKSVDLYSTYDEMIELKAHRQPKITLSKSWIKRKDYRFIVSYLRERSATSGYKYTDYR | not soluble
21 | KGDDNYYIIFTSGTTGQPKGVQISHDNLLSFTNWMIEDAAFDVPKQPQMLAQPPYSFDLSVMYWAPTLALGGTLFALPKELVADFKQLFTTIAQLPVGIWTSTPSFADMAMLSDDFCQAKMPALTHFYFDGEELTVSTARKLFERFPSAKIINAYGPTEATVALSAIEITREMVDNYT | not soluble
22 | MNTNSYSMAQDNEEITKLEAPSTNKTNTLLSQSHAVVNHGDNGQINGKKTKEIHRVKRASDKKVSSKRVSRTWKIPKYPKKQPKSDQEHPGFNLDYMQPTTHPPHHN | soluble
23 | SMTEEQPVASWALSFERLLQDPLGLAYFTEFLKKEFSAENVTFWKACERFQQIPASDTQQLAQEARNIYQEFLSSQALSPVNIDRQAWLGEEVLAEPRPDMFRAQQLQIFNLMKFDSYARFVKSPLYRECLLAEAEGRPLREPGSSRLGSPDAT | soluble
24 | MKLHLEIWRQAGPNSEGHFEPIDVNDAVPQMSVLELLDHVNTGLIEEGKEPFVFASDCREGICGTCGLLVNGRPHGLDKNKPSCQQRLDHVPDGSTLKIEPLRSAAYPVVKDLLVDRSALDRVLEKGGFVSINAGTAPDADTLHQNHESAELALDH | not soluble
25 | MSLEKWRIYEELTNAVREFESINPVRLIPEVGTNFVYSLPLPYARSTKDVAGVKGRIVKYGNSVKAVGPVEFGASDHLARAVLTYMRFYPEYRSAINIRYSREIIEEIIEIAQERGFKVSFYDRREEPEEIKAKEGATIPWGIETAIKRIKERPDIIYHLGDVGKEPMILVFGRNPREVLEKIKMLIEGHHHHHH | soluble
26 | MSDVTGDLAAVSEAKGGSDAARISEVKAWLTSQFEAVGKEVPNFEYTHRSITHLYNLATASQAKSQAATIVANDFRLKASEYRAQAARIREILESAGMSQESLPSNVVSSAQVLANVANLLNIRDTELSRILAQLEDDVVPCESQMENWKTNLEVMAVKEEQYIQQYKKYEMLLNRVGYTPKISHRELVEMAEHRKELDKMTKPVLDTLRSYQDLPPDKALAALAIEDKKRQFTAAEKYLEEVLQSALETNDE | soluble
